From the DeepSol protein solubility set

test: soluble on expression in E. coli; label from the status in PepcDB or PDB records

Sequence	soluble on expression in E. coli
MSYPATRAEQVVDTLHGVQVADPYRWLEDEKAPEVQTWMTAQNAHAREALAKFPGREALAARFKELFYTDSVSTPSRRNGRFFYVRTHKDKEKAILYWRQGESGQEKVLLDPNGWSKDGTVSLGTWAVSWDGKKVAFAQKPNAADEAVLHVIDVDSGEWSKVDVIEGGKYATPKWTPDSKGFYYEWLPTDPSIKVDERPGYTTIRYHTLGTEPSKDTVVHERTGDPTTFLQSDLSRDGKYLFVYILRGWSENDVYWKRPGEKDFRLLVKGVGAKYEVHAWKDRFYVLTDEGAPRQRVFEVDPAKPARASWKEIVPEDSSASLLSVSIVGGHLSLEYLKDATSEVRVATLKGKPVRTVQLPGVGAASNLMGLEDLDDAYYVFTSFTTPRQIYKTSVSTGKSELWAKVDVPMNPEQYQVEQVFYASKDGTKVPMFVVHRKDLKRDGNAPTLLYGYGGFNVNMEANFRSSILPWLDAGGVYAVANLRGGGEYGKAWHDAGRLDKKQNVFDDFHAAAEYLVQQKYTQPKRLAIYGGSNGGLLVGAAMTQRPELYGAVVCAVPLLDMVRYHLFGSGRTWIPEYGTAEKPEDFKTLHAYSPYHHVRPDVRYPALLMMAADHDDRVDPMHARKFVAAVQNSPGNPATALLRIEANAGHGGADQVAKAIESSVDLYSFLFQVLDVQGAQGGVAAQGRHHHHHH	soluble
MSLRVRIAVIGKLDGFIKEGIKHYEKFLRRFCKPEVLEIKRVHRGSIEEIVRKETEDLTNRILPGSFVMVMDKRGEEVSSEEFADFLKDLEMKGKDITILIGGPYGLNEEIFAKAHRVFSLSKMTFTHGMTVLIVLEQIFRAFKIIHGENYHYEGGSHHHHHH	soluble
FHSVLIANVNSGLGELASDADLTQVKGKTLTFGSESSTSGRLMPQYYLEQAGVSLEDFQGEVGFSASHDATIQLVEAGTYDLGMLNEQVWNSRVEAGEVDTNRVNVIWRSPAYYDYHWVISPDVDERYGEG	not soluble
MPEPRCTAIVNFLNLSHSILISIFSVSVMSNYHHNHNYQHRPRGYERLPGKRLPDRWNIYDNVGRDIDGTRFVPFKTPLDSSFFDGKNMPVELQFGVKTLISLAQQANKQIGLVIDLTNTDRYYKKTEWADHGVKYLKLNCPGHEVNEREDLVQDFINAVKEFVNDKENDGKLIGVHCTHGLNRTGYLICRYMIDVDNYSASDAISMFEYYRGHPMEREHYKKSLYEAERKKKYGKSSGKSSGNSADSTISSEQLHRNNSQ	not soluble
MPELSPLTYGHTDARLILRVGGSMGDVYGQRLLKRDLNGYILNEEGVGLAMENKETYLGSILPKMNMGWSLGFGYKGVNLGMTFTGRFGGIVISETQSVLDAAGVSKVSADVRDAGGVQINQSKVSAQTYYQTIQGTAAYYTYSATNVRLGELSLSYTLPKKWFDNKVGMTVGLVGKNLWMIYCKAPFDPELTTSAASNFYQGFDAYMLPSTRNFGFNVKFQF	not soluble
MAHHHHHHMFRSASCILLAAKTIPINPQKPFKLHTAGRDDVPPVPTTATYDTEQMKKCLEMMFRIRRMESLCDQSYKLKKIRGFCHLYIGQEAIPVGMENVLTLEDLIVTAYRDHAWYIVRGGTPGEVFAEMFGKEGGCSKGKGGSMHMYSVKNNFFGGNGIVGAQVPIGAGLGWRFALENRDKPRNVAVTFYGDGAANQGQVFEAMNIAAIHRIPVIFCCENNQFGMGTSKERAAYQPEMYRRGDYIPGLQVDGMDVLAVQEGTRWAKEWCLSGKGPIVLEFDSYRYVGHSMSDPDSQYRKKSDIQDVRKTRDCIHKMKDFMLEEGIMTDEEMKKLEKDVKKEVDQQLQPAEKQKPTPRSELFTDIYVGEQYEHRTTQGTVYAKP	not soluble
MKTIYLHHPITTDEWTDVKKVMALGFFDGVHLGHQAVIKQAKQIAEEKGLQTAVLTFDPHPSVVLSNIRKQVKYLTPLEDKAEKMANLGVDIMYVVRFTTQFSELSPRAFVDNYLVALNVKHVVAGFDYSYGKKGEGKMTELENYANGRFEVTIVDKQTAASDKISSTNIRRAITEGELEEANQLLGYP	not soluble
MGSDKIHHHHHHMRKEKLYTGCLLLMALITGSCSEEENPEVRPATKPAEPYTSYYYYSYEAARQLSATDFALAEGQFTPGPTYIKGDTLFVANIQSGAFSLELYDRNKNRHLASLKSWKYKEAEQKFPDKIEAIGISGNRLYLANISSRIDVFDVRTLEFITRIGTGNWGDGINQMVHSHAMAITPDGNIMIRTKKNLLVYREADVTLENYQKVPFYCRSKGDGMDVNNGFHSHQMVQDSTGIVYLADFGQYGNQKIQAIDTTLIEKGDQKILIDTEKTLPLSFNPCGIALHENRMILSAQNGSLFIYDRTKGNWENSFKSVKGYTFKKPEKLLVDQNTLWVSDVNAQKLVEVKIYKNEIREY	not soluble
PQQRRDIRFVWSGDTVGQGFGINPDIGGMRIYEAMRLRLPDFFIHSGDTIYADGPVPAQITAEGGRIWRNITTEAKSKVAETLDEYRGNYRYNLMDENLRRFNAEVPQIWQWDDHEVTNNWSPSKQLDDRYKVKDIQLLSSRARQAYLEYAPLRLQEADKGGRIYRKIPYGPMLDVFVLDMRSYRDGNDANLADKPGPTTAFMGCEQLDWLKRELDASTAQWKVIAADMPIGLGVPDGEVSPGVPRWEAIANGNDGPALGRELEIAELLAYLRAQKVRDCVWLTADVHYCAAHHYQPDLAVFQDFDPFWEFVAGPLNASSFGPNVLDKTFGPELVFQKAPPAQNTSPFAGYQFFGEVNIDGQTGEMSVALRDLDGVSVFERKLQP	not soluble
MSKKTPLNEIAEFDVSDYLRDDEDIAEYLTQVLAEGDSNELLRAIGYIAKARGITQLAKDTGLGRESLYKAFRAGSKPQFETVFKVLHALNINLKAIPKEVVSTRV	not soluble
MGHHHHHHSHMSEDNRPLTGLAAAIAGAKLRKVSRMEDTSFPSGGNAIGVNSASSKTDTGRGNGPLPLGGSGLMEEMSALLARRRRIAEKGSTIETEQKEDKGEDSEPVTSKASSTSTPEPTRKPWERTNTMNGSKSPVISRPKSTPLSQPSANGVQTEGLDYDRLKQDILDEMRKELTKLKEELIDAIRQELSKSNTA	not soluble
MQRVAISTLGCKINQFESAAMTESLGREGFRVVPFDEDADIYVINTCTVTAKTDAESRRLIRRALRRNPAARVVVTGCYAQVAPDAVKDLPGVALVVGNSEKRSIGELLRDAAPAEKVMVSDISRERTAEGLRLESFAEHTRAFLQVQNGCDAFCSYCIVPYARGRSRSVSFSEALAGIRNFAAQGFREVVLTGIHLGAYGLDLAPPTNLLALLEASEAEKAVPRLRVGSVEPNELTDALVDFLARSETVCPHLHIPLQSGDDRVLERMGRRYTAAFFRERVERLVAVVPDIFIGCDVIAGFPGETDEEFQNTVRLIEELPVASLHVFPYSRREGTAAARMEGQVDGKVIRGRAEILREVGERKRRSFCERFVGRELAVLMQNRGRDGEAVGLSRNYLPVRVPGYAGEMNAEATVMVTEVTPDGVGGIIRGLEHHHHHH	soluble
MGSDKIHHHHHHMKTQFPSVWQDKLSQKHFSAFTTIQEAAFDPIKNGKSLLGISPTGSGKTLAYLWPSLLTLTPKKAQQLLILAPNTELAGQIFEVAKEWAQPLNLTAQLFLSGSSQKRQIERLKKGPEIIIGTPGRVFDLVKLKKIKMMNVNTIVLDEFDDLLGKSQIHFVKNIVKRVPRDHQMIYMSATNSIDRTFLADDTLEIDLSKQTVDTISHYYITVAKRERGELLRKFSNIPNFRGLVFFNRLSDLGANEERLQFSGASAVSLASDVNIKFRKVILEKFKNHELSLLLATDLVARGIDIELLETVINFDLPRDKDAYNHRAGRTGRMGKNGIVVTFISHPEELKKLKKFAHVSEVYLKNQILHKK	not soluble
MEKEQLIEIANTIMPFGKYKGRRLIDLPEEYLLWFARKDEFPAGKLGELMQITLLIKNEGLTQLVQPLKRPL	soluble
MSLNTIDNKEHIIHYEHILKSTHTVNEVNTVSEVDAMKYSLIKLSAMNSYSDCQQAIEDIEADPENYTTETRAAARIGGHCELLKGAKEKIKALEKKADSFIPSDDSEEVNTVSETSQRTYGYGRVSTDEQTTSQQLTAIREAGHKVSDNRFIVDEGVSGGVCAMERPAFRNLVENKLEKGDTLVIAKLDRLGRDNIDVQQVVQMLTDKGIKLFILDLPVADLSSPEGKLMLQMFATFAEFEKNRISERIRDKLKQLKQEGKALGRPTKNVYDDVQELKAQGISQRTIADKLNVSLSTVRRNWVDTKRSLEVVTESGEGHHHHHH	not soluble
MKPPPRRRAAPARYLGEVTGPATWSAREKRQLVRLLQARQGQPEPDATELARELRGRSEAEIRVFLQQLKGRVAREAIQKVHPGGLQGPRRREAQPPAPIEVWTDLAEKITGPPEEAVAVAFSQVLTIAATEPVTLLHSKPPKPTQARGKPLLLSAPGGQEDPAPEIPSSAPAAPSSAPRTPDPAPEKPSESSAGPSTEEDFAVDFEKIYKYLSSVSRSGRSPELSAAESAVVLDLLMSLPEELPLLPCTALVEHMTETYLRLTAPQPIPAGGSLGPAAEGVGAGSKAPEETPPATEKAEHSELKSPWQAAGICPLNPFLVPLELLGRAATPAR	soluble
MLGDGLSVALAGLLHDVGKLYSRARWGERDDQVPDRTHTAYTAHFVREHAGLFRGAGLDPDWLARTASRHHEGWRDRPQYRPETPEEWCVALADTYASKEREEGEGGGSPPEVPLSPPFRRLLLGGEEGREGGYSPVGAGGRVGLEAGGLYPEERPNVSKDVYKRLLERLEGRLEEMARFSLGKEALVLNLALALQETLSLVPSDTQSEPDVSLYDHLRLTAAIAHALWLFHGGSPSAQNLRQDGEKFLLVVGDMGGIQGHIYRIAGAEAGVGGIAKRLRARSLEVSLAAEAMALGLLWRLGLTSLNRILGAGGKFYLLLPNTEEARAALEGTREAWGRWALKRGGSLVPHLAWVAFRGQDFRDFAALLKRLHEALAREKLRPFAFLASTGGVLGAPLRPCAACGLEPARRDEPGSLCPDCEREAALGARLPRSDRVGFFLEEAPRPYLDFPGLKVGLGGPLEGAFHLFRARLDFAPWPDPSEAKPLLGHLPRVEHALKAKGWSLEAYRAWAEEEGLLEDEEPHPEKVLTFAELAALSEGAPYLGALMLDADRMGEAFATGFRREGRDLATPSRLAALSRTLEVFFTTEVLTLLEEPRRYRERLGWDDLEAQRKEARYPLLYSVYSGGDDLFLLGPWDALLDFALDLERLYRLFTRHPRLTLSGGFLLVPPSLPVPELARLLGEAEKRAKAEGRERLFLFGQAVPWETLRGLRAWAEGLRQDLRAERVSRAQVYRWLLLWRRFSPLEDPGERMRYKPLLAYALRRVRERDEEAWKRYLKLLDHQDPAWAYLPVWVQWALYRERRV	soluble
NNADYIEMKVPAQPEYVGIIRLTLSGVASRMGYTYDEIEDLKIAVSEACTNAVQHAYKEDKNGEVSIRFGVFEDRLEVIVADEGDSFDFDQKQQDLGPYTPSHTVDQLSEGGLGLYLMETLMDEVRVQNHSGVTVAMTKYLNGERVDHDTTIKNYETN	not soluble
MISVVIPAKDEVGNIGPLMKEICQALQGVTEFEILVVDDGSQDDTFGEVIHTAELMLCNAKAIRHERSTGQSTAISTGVLHARGQYIVTLDADGQNDPADIPAMLAQLPQIHAEHFCIAGYRKNRKDTAWKRFQSRFANKVRDALLHDGVPDTGCGLKLFPRETFLRMPYFDHMHRYIPALVRRMGGEVFISVVNHRDRQLGVSKYTAWNRVWVGIVDIMGVIWLGRRAKIAKVARSETRWHDLEHHHHHH	soluble
